Results on 125 sequences are retold here after the supplement of paper PMC9112550, “Optimization of the antimicrobial peptide Bac7 by deep mutational scanning” (BMC Biology, 2022).

In this series the test system is Escherichia coli TOP10. As to the kind of experiment: shrunken log2 fold change of peptide-encoding DNA abundance (4.5 h post-induction vs induction); higher = less antimicrobial activity (less host growth inhibition). The settings on record: time post-induction: 4.5 h; library: site-saturation at positions 5, 18, 19, 20.
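Note: peptides expressed intracellularly from a pBAD plasmid library in pooled LB shake-flask culture, induced with 0.3% L-arabinose, DNA abundance read by NGS, three biological replicates, DESeq2 with apeglm shrinkage.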

As to RRIRIRPPRLPRPRPRPYRLPRP, the “shrunken log2 fold change” value amounted to 0.00643.

Turning to RRIRFRPPRLPRPRPRPTTAPRP, the “shrunken log2 fold change” value stood at 0.297.

For the sequence RRIRWRPPRLPRPRPRPTQNPRP, the “shrunken log2 fold change” value is 0.637.

On to RRIRCRPPRLPRPRPRPWLLPRP, for which the “shrunken log2 fold change” value was -0.381.

Regarding RRIRRRPPRLPRPRPRPADGPRP, the “shrunken log2 fold change” value amounted to 0.344.

Regarding RRIRFRPPRLPRPRPRPDYRPRP, the “shrunken log2 fold change” value is -0.0359.

Turning to RRIRLRPPRLPRPRPRPTCMPRP, the “shrunken log2 fold change” value is -0.228.

Take RRIRKRPPRLPRPRPRPCHAPRP: the “shrunken log2 fold change” value was 0.384.

In the case of RRIRIRPPRLPRPRPRPPPGPRP, the “shrunken log2 fold change” value was found to be 0.685.

As to RRIRSRPPRLPRPRPRPTVIPRP, the “shrunken log2 fold change” value is -0.0891.

With RRIRIRPPRLPRPRPRPQCYPRP, the “shrunken log2 fold change” value was -0.0646.

Regarding RRIRHRPPRLPRPRPRPQQPPRP, the “shrunken log2 fold change” value turned out to be 0.176.

For RRIRYRPPRLPRPRPRPSMPPRP, the “shrunken log2 fold change” value was -1.69.

For RRIRDRPPRLPRPRPRPKHIPRP, the “shrunken log2 fold change” value is -0.236.

As to RRIRARPPRLPRPRPRPHAIPRP, the “shrunken log2 fold change” value worked out at 0.0503.

As for RRIRYRPPRLPRPRPRPTRYPRP, the “shrunken log2 fold change” value is -0.469.

Consider RRIRDRPPRLPRPRPRPTKVPRP, for which the “shrunken log2 fold change” value was -0.274.

With RRIRVRPPRLPRPRPRPHKWPRP, the “shrunken log2 fold change” value is -0.0581.

With RRIRWRPPRLPRPRPRPQVTPRP, the “shrunken log2 fold change” value is -0.0309.

Regarding RRIRLRPPRLPRPRPRPTIGPRP, the “shrunken log2 fold change” value was -0.192.

Turning to RRIRHRPPRLPRPRPRPNCKPRP, the “shrunken log2 fold change” value was -0.211.

For RRIRWRPPRLPRPRPRPCYVPRP, the “shrunken log2 fold change” value was -0.127.

For the sequence RRIRSRPPRLPRPRPRPAYEPRP, the “shrunken log2 fold change” value came out at 0.00308.

In the case of RRIRWRPPRLPRPRPRPIEVPRP, the “shrunken log2 fold change” value was 0.0279.

Regarding RRIRKRPPRLPRPRPRPFTDPRP, the “shrunken log2 fold change” value was -0.091.

On to RRIRARPPRLPRPRPRPICYPRP, for which the “shrunken log2 fold change” value was -0.0212.

Take RRIRDRPPRLPRPRPRPSPGPRP: the “shrunken log2 fold change” value came to 0.241.

Consider RRIRDRPPRLPRPRPRPLCWPRP, for which the “shrunken log2 fold change” value came to 0.824.

In the case of RRIRPRPPRLPRPRPRPNITPRP, the “shrunken log2 fold change” value is -0.293.

RRIRERPPRLPRPRPRPGHQPRP: the “shrunken log2 fold change” value is -0.236.

With RRIRPRPPRLPRPRPRPDSVPRP, the “shrunken log2 fold change” value is 0.195.

Take RRIRERPPRLPRPRPRPYECPRP: the “shrunken log2 fold change” value is -0.0425.

Turning to RRIRRRPPRLPRPRPRPRLTPRP, the “shrunken log2 fold change” value was 0.439.

In the case of RRIRDRPPRLPRPRPRPTIQPRP, the “shrunken log2 fold change” value was -0.0142.

Consider RRIRQRPPRLPRPRPRPARVPRP, for which the “shrunken log2 fold change” value turned out to be 0.109.

In the case of RRIRRRPPRLPRPRPRPEREPRP, the “shrunken log2 fold change” value is 0.297.

For the sequence RRIRFRPPRLPRPRPRPMKGPRP, the “shrunken log2 fold change” value is -0.0547.

Turning to RRIRMRPPRLPRPRPRPETGPRP, the “shrunken log2 fold change” value was found to be 0.321.

In the case of RRIRARPPRLPRPRPRPELHPRP, the “shrunken log2 fold change” value is 0.964.

As for RRIRNRPPRLPRPRPRPKIKPRP, the “shrunken log2 fold change” value was -0.256.

For RRIRSRPPRLPRPRPRPIPYPRP, the “shrunken log2 fold change” value was -0.344.

As for RRIRSRPPRLPRPRPRPWVEPRP, the “shrunken log2 fold change” value was -0.214.

As to RRIRERPPRLPRPRPRPDDGPRP, the “shrunken log2 fold change” value was -0.269.

RRIRFRPPRLPRPRPRPWLKPRP: the “shrunken log2 fold change” value is -0.111.

In the case of RRIRKRPPRLPRPRPRPHEWPRP, the “shrunken log2 fold change” value was determined as 0.3.

RRIRERPPRLPRPRPRPTGPPRP: the “shrunken log2 fold change” value was found to be 0.353.

With RRIRWRPPRLPRPRPRPIVKPRP, the “shrunken log2 fold change” value was -0.174.

As for RRIRWRPPRLPRPRPRPDFLPRP, the “shrunken log2 fold change” value was -0.221.

On to RRIRSRPPRLPRPRPRPNIMPRP, for which the “shrunken log2 fold change” value was -0.49.

RRIRFRPPRLPRPRPRPMWYPRP: the “shrunken log2 fold change” value was -0.0081.

With RRIRLRPPRLPRPRPRPETRPRP, the “shrunken log2 fold change” value worked out at 0.0057.

Turning to RRIRSRPPRLPRPRPRPEFQPRP, the “shrunken log2 fold change” value amounted to 0.161.

As for RRIRVRPPRLPRPRPRPFEWPRP, the “shrunken log2 fold change” value was -0.102.

For RRIRMRPPRLPRPRPRPTSQPRP, the “shrunken log2 fold change” value is 0.393.

RRIRARPPRLPRPRPRPAVMPRP: the “shrunken log2 fold change” value worked out at 0.399.

For RRIRSRPPRLPRPRPRPEQPPRP, the “shrunken log2 fold change” value was 0.591.

With RRIRIRPPRLPRPRPRPYGPPRP, the “shrunken log2 fold change” value is -1.06.

RRIRARPPRLPRPRPRPRVAPRP: the “shrunken log2 fold change” value was 0.46.

As for RRIRTRPPRLPRPRPRPWCIPRP, the “shrunken log2 fold change” value is -0.19.

For the sequence RRIRQRPPRLPRPRPRPIMWPRP, the “shrunken log2 fold change” value stood at 0.0394.

As for RRIRYRPPRLPRPRPRPSFKPRP, the “shrunken log2 fold change” value is -0.806.

For RRIRQRPPRLPRPRPRPFEMPRP, the “shrunken log2 fold change” value was -0.0512.

Take RRIRRRPPRLPRPRPRPMNEPRP: the “shrunken log2 fold change” value is -0.0251.

On to RRIRKRPPRLPRPRPRPEFKPRP, for which the “shrunken log2 fold change” value came out at 0.165.

RRIRWRPPRLPRPRPRPNFSPRP: the “shrunken log2 fold change” value is -0.305.

Take RRIRERPPRLPRPRPRPPDQPRP: the “shrunken log2 fold change” value was found to be 0.155.

For RRIRSRPPRLPRPRPRPSGDPRP, the “shrunken log2 fold change” value worked out at 0.118.

Consider RRIRERPPRLPRPRPRPSMDPRP, for which the “shrunken log2 fold change” value was -0.355.

In the case of RRIRKRPPRLPRPRPRPKCYPRP, the “shrunken log2 fold change” value is -0.0561.

RRIRKRPPRLPRPRPRPRFDPRP: the “shrunken log2 fold change” value was found to be 0.19.

Regarding RRIRCRPPRLPRPRPRPEMKPRP, the “shrunken log2 fold change” value stood at 0.0473.

As for RRIRFRPPRLPRPRPRPLGMPRP, the “shrunken log2 fold change” value is -0.0132.

Consider RRIRHRPPRLPRPRPRPIQQPRP, for which the “shrunken log2 fold change” value is -0.15.

Regarding RRIRCRPPRLPRPRPRPIVSPRP, the “shrunken log2 fold change” value is -0.506.

For RRIRARPPRLPRPRPRPNGMPRP, the “shrunken log2 fold change” value was -0.0336.

Turning to RRIRRRPPRLPRPRPRPRQAPRP, the “shrunken log2 fold change” value was 0.801.

Regarding RRIRIRPPRLPRPRPRPEQHPRP, the “shrunken log2 fold change” value was -0.0723.

As for RRIRRRPPRLPRPRPRPPAMPRP, the “shrunken log2 fold change” value came out at 0.814.

As for RRIRRRPPRLPRPRPRPRWRPRP, the “shrunken log2 fold change” value turned out to be 0.832.

Regarding RRIRIRPPRLPRPRPRPIPAPRP, the “shrunken log2 fold change” value was -0.0353.

RRIRNRPPRLPRPRPRPVATPRP: the “shrunken log2 fold change” value is -0.0503.

As for RRIRLRPPRLPRPRPRPWSVPRP, the “shrunken log2 fold change” value was -0.0834.

In the case of RRIRQRPPRLPRPRPRPPMQPRP, the “shrunken log2 fold change” value is -0.055.

Consider RRIRMRPPRLPRPRPRPRQHPRP, for which the “shrunken log2 fold change” value came out at 0.47.

As for RRIRKRPPRLPRPRPRPQLSPRP, the “shrunken log2 fold change” value is -0.272.

In the case of RRIRCRPPRLPRPRPRPSCSPRP, the “shrunken log2 fold change” value was -0.482.

For the sequence RRIRARPPRLPRPRPRPKCQPRP, the “shrunken log2 fold change” value came out at 0.432.

Take RRIRARPPRLPRPRPRPEHPPRP: the “shrunken log2 fold change” value is 0.652.

For the sequence RRIRGRPPRLPRPRPRPHGNPRP, the “shrunken log2 fold change” value is 0.365.

With RRIRMRPPRLPRPRPRPLAVPRP, the “shrunken log2 fold change” value worked out at 0.328.

Turning to RRIRMRPPRLPRPRPRPFYSPRP, the “shrunken log2 fold change” value is -0.0137.

Regarding RRIRGRPPRLPRPRPRPHINPRP, the “shrunken log2 fold change” value worked out at 0.214.

As for RRIRFRPPRLPRPRPRPKLAPRP, the “shrunken log2 fold change” value is 0.559.

Turning to RRIRWRPPRLPRPRPRPDGGPRP, the “shrunken log2 fold change” value is -0.0355.

Regarding RRIRLRPPRLPRPRPRPHEWPRP, the “shrunken log2 fold change” value was -0.0141.

On to RRIRVRPPRLPRPRPRPISEPRP, for which the “shrunken log2 fold change” value was -0.282.

With RRIRDRPPRLPRPRPRPTETPRP, the “shrunken log2 fold change” value was -0.000924.

With RRIRVRPPRLPRPRPRPTFFPRP, the “shrunken log2 fold change” value was 0.0435.

In the case of RRIRERPPRLPRPRPRPYKCPRP, the “shrunken log2 fold change” value was -0.122.

With RRIRIRPPRLPRPRPRPDWSPRP, the “shrunken log2 fold change” value was -0.161.

Turning to RRIRQRPPRLPRPRPRPCIAPRP, the “shrunken log2 fold change” value is -0.0382.

For RRIRGRPPRLPRPRPRPGACPRP, the “shrunken log2 fold change” value amounted to 0.911.

As to RRIRDRPPRLPRPRPRPVRAPRP, the “shrunken log2 fold change” value is 0.325.

RRIRCRPPRLPRPRPRPLQIPRP: the “shrunken log2 fold change” value is -0.213.

Regarding RRIRHRPPRLPRPRPRPDLQPRP, the “shrunken log2 fold change” value was -0.15.

As for RRIRERPPRLPRPRPRPPMDPRP, the “shrunken log2 fold change” value was -0.214.

On to RRIRERPPRLPRPRPRPTECPRP, for which the “shrunken log2 fold change” value was -0.00173.

For the sequence RRIRWRPPRLPRPRPRPDRPPRP, the “shrunken log2 fold change” value was -0.0134.

Turning to RRIRIRPPRLPRPRPRPMIMPRP, the “shrunken log2 fold change” value was -0.615.

As to RRIRCRPPRLPRPRPRPNTHPRP, the “shrunken log2 fold change” value was -0.499.

On to RRIRGRPPRLPRPRPRPMSIPRP, for which the “shrunken log2 fold change” value was determined as 0.0628.

As to RRIRYRPPRLPRPRPRPRYSPRP, the “shrunken log2 fold change” value was -1.43.

As for RRIRKRPPRLPRPRPRPKDSPRP, the “shrunken log2 fold change” value was found to be 0.218.

On to RRIRHRPPRLPRPRPRPGFPPRP, for which the “shrunken log2 fold change” value came out at 0.336.

With RRIRQRPPRLPRPRPRPLDKPRP, the “shrunken log2 fold change” value stood at 2.19.

Consider RRIRYRPPRLPRPRPRPWYAPRP, for which the “shrunken log2 fold change” value is -1.43.

With RRIRQRPPRLPRPRPRPGQQPRP, the “shrunken log2 fold change” value was -0.0212.

As to RRIRARPPRLPRPRPRPPCHPRP, the “shrunken log2 fold change” value is 0.219.

Take RRIRWRPPRLPRPRPRPGIHPRP: the “shrunken log2 fold change” value amounted to 0.11.

On to RRIRMRPPRLPRPRPRPEPPPRP, for which the “shrunken log2 fold change” value turned out to be 1.76.

As to RRIRARPPRLPRPRPRPPGMPRP, the “shrunken log2 fold change” value is 0.471.

In the case of RRIRQRPPRLPRPRPRPRRHPRP, the “shrunken log2 fold change” value was -0.0734.

As for RRIRLRPPRLPRPRPRPNIGPRP, the “shrunken log2 fold change” value was -0.00419.

Consider RRIRHRPPRLPRPRPRPKWWPRP, for which the “shrunken log2 fold change” value was 0.0178.

With RRIRWRPPRLPRPRPRPLEHPRP, the “shrunken log2 fold change” value was 0.165.
